Target: Gα15 (mammalian)

clamp current on perfusion with 4-methyl phenol, voltage clamp of Xenopus oocytes expressing AgOR1/Gα15: 20 nA
Substance: Anopheles gambiae odorant receptor 1 (from UniProt Q8WTE7)

— patent US20050153368A1
